System: Escherichia coli TOP10
Test: shrunken log2 fold change of peptide-encoding DNA abundance (4.5 h post-induction vs induction); higher = less antimicrobial activity (less host growth inhibition)
Settings: time post-induction: 4.5 h; library: site-saturation at positions 5, 18, 19, 20
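Further: peptides expressed intracellularly from a pBAD plasmid library in pooled LB shake-flask culture, induced with 0.3% L-arabinose, DNA abundance read by NGS, three biological replicates, DESeq2 with apeglm shrinkage.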

Sequence	shrunken log2 fold change
RRIRLRPPRLPRPRPRPQKAPRP	0.000116
RRIRWRPPRLPRPRPRPQEVPRP	-0.0144
RRIRWRPPRLPRPRPRPMTIPRP	0.025
RRIRTRPPRLPRPRPRPCWWPRP	0.636
RRIRTRPPRLPRPRPRPQHTPRP	-0.733
RRIRFRPPRLPRPRPRPYTDPRP	-0.233
RRIRSRPPRLPRPRPRPHQHPRP	-0.321
RRIRARPPRLPRPRPRPRWGPRP	0.425
RRIRYRPPRLPRPRPRPWNIPRP	-0.01
RRIRTRPPRLPRPRPRPRETPRP	0.511
RRIRIRPPRLPRPRPRPWFVPRP	-0.578
RRIRDRPPRLPRPRPRPLRQPRP	0.565
RRIRPRPPRLPRPRPRPKQHPRP	-0.0393
RRIRQRPPRLPRPRPRPPVQPRP	0.301
RRIRQRPPRLPRPRPRPEAFPRP	0.127
RRIRPRPPRLPRPRPRPLGQPRP	0.0471
RRIRYRPPRLPRPRPRPEITPRP	-0.295
RRIRQRPPRLPRPRPRPQDSPRP	-0.297
RRIRIRPPRLPRPRPRPSTPPRP	-0.373
RRIRVRPPRLPRPRPRPGAWPRP	0.323
RRIRARPPRLPRPRPRPRNKPRP	0.271
RRIRRRPPRLPRPRPRPCFMPRP	-0.207
RRIRQRPPRLPRPRPRPTGRPRP	0.146
RRIRGRPPRLPRPRPRPTSLPRP	0.542
RRIRARPPRLPRPRPRPTMHPRP	0.354

Sequence	shrunken log2 fold change
RRIRVRPPRLPRPRPRPYSWPRP	-0.163
RRIRNRPPRLPRPRPRPMREPRP	0.13
RRIRSRPPRLPRPRPRPFSWPRP	-0.197
RRIRVRPPRLPRPRPRPYGMPRP	-0.0584
RRIRMRPPRLPRPRPRPSVQPRP	0.296
RRIRWRPPRLPRPRPRPIAPPRP	0.45
RRIRERPPRLPRPRPRPVAGPRP	0.246
RRIRMRPPRLPRPRPRPKIAPRP	0.244
RRIRLRPPRLPRPRPRPRTEPRP	0.0352
RRIRRRPPRLPRPRPRPTHAPRP	1.13
RRIRMRPPRLPRPRPRPLGPPRP	0.716
RRIRQRPPRLPRPRPRPMPAPRP	0.178
RRIRLRPPRLPRPRPRPDGQPRP	0.00145
RRIRTRPPRLPRPRPRPLCFPRP	-0.326
RRIRSRPPRLPRPRPRPPGVPRP	0.293
RRIRVRPPRLPRPRPRPFKQPRP	-0.0195
RRIRERPPRLPRPRPRPYQNPRP	-0.0789
RRIRGRPPRLPRPRPRPIKTPRP	0.143
RRIRCRPPRLPRPRPRPCQSPRP	0.00299
RRIRTRPPRLPRPRPRPFDNPRP	-1.32
RRIRFRPPRLPRPRPRPTPAPRP	0.951
RRIRMRPPRLPRPRPRPWKHPRP	-0.109
RRIRSRPPRLPRPRPRPMWRPRP	0.1
RRIRGRPPRLPRPRPRPWNKPRP	-0.306
RRIRMRPPRLPRPRPRPSTEPRP	1.63

Sequence	shrunken log2 fold change
RRIRPRPPRLPRPRPRPVNYPRP	-0.335
RRIRQRPPRLPRPRPRPHGSPRP	-0.00277
RRIRFRPPRLPRPRPRPSPRPRP	0.426
RRIRWRPPRLPRPRPRPTWDPRP	0.395
RRIRSRPPRLPRPRPRPKANPRP	0.126
RRIRTRPPRLPRPRPRPSGWPRP	-0.00504
RRIRLRPPRLPRPRPRPDYLPRP	-0.114
RRIRFRPPRLPRPRPRPRVIPRP	-0.0914
RRIRTRPPRLPRPRPRPLGEPRP	0.0248
RRIRERPPRLPRPRPRPPRDPRP	0.226
RRIRNRPPRLPRPRPRPHCVPRP	0.0245
RRIRHRPPRLPRPRPRPLEEPRP	0.136
RRIRSRPPRLPRPRPRPGTIPRP	-0.263
RRIRVRPPRLPRPRPRPNAAPRP	0.0557
RRIRSRPPRLPRPRPRPPYLPRP	-0.45
RRIRWRPPRLPRPRPRPAQFPRP	0.248
RRIRNRPPRLPRPRPRPTIKPRP	-0.496
RRIRWRPPRLPRPRPRPHAMPRP	0.00797
RRIRYRPPRLPRPRPRPNSYPRP	-2.3
RRIRTRPPRLPRPRPRPHVKPRP	-0.126
RRIRWRPPRLPRPRPRPHNRPRP	-0.205
RRIRDRPPRLPRPRPRPYYIPRP	-0.0955
RRIRHRPPRLPRPRPRPPGAPRP	0.935
RRIRFRPPRLPRPRPRPERYPRP	0.0915
RRIRIRPPRLPRPRPRPNDIPRP	-1.11

— the supplement of paper PMC9112550, “Optimization of the antimicrobial peptide Bac7 by deep mutational scanning” (BMC Biology, 2022)
